Source: doi:10.1101/2020.11.17.387910 (bioRxiv, 2020)

Target: the molecule itself
Experiment: SAXS

B1: human P5 (PDIA6), full-length (enzyme, UniProt Q15084 20-440, looked up)
chain: LYSSSDDVIELTPSNFNREVIQSDSLWLVEFYAPWCGHCQRLTPEWKKAATALKDVVKVGAVDADKHHSLGGQYGVQGFPTIKIFGSNKNRPEDYQGGRTGEAIVDAALSALRQLVKDRLGGRSGGYSSGKQGRSDSSSKKDVIELTDDSFDKNVLDSEDVWMVEFYAPWCGHCKNLEPEWAAAASEVKEQTKGKVKLAAVDATVNQVLASRYGIRGFPTIKIFQKGESPVDYDGGRTRSDIVSRALDLFSDNAPPPELLEIINEDIAKRTCEEHQLCVVAVLPHILDTGAAGRNSYLEVLLKLADKYKKKMWGWLWTEAGAQSELETALGIGGFGYPAMAAINARKMKFALLKGSFSEQGINEFLRELSFGRGSTAPVGGGAFPTIVEREPWDGRDGELPVEDDIDLSDVELDDLGKDEL
stoichiometry N: 2
